Columns and labels:
[1] = biological target: collagen receptor on human platelets (human)
[2] = biological target: collagen receptor (VL A 2) on MTLn3 cells (rat mammary tumor cells) (rat)
[3] = biological target: collagen receptor on human platelets (human); remark: listed apart in the source
[4] = biological target: thrombin
[5] = biological target: collagen receptor on human platelets (human); remark: listed apart in the source
[6] = biological target: collagen receptor (VL A 2) on MTLn3 cells (rat mammary tumor cells) (rat); remark: listed apart in the source
[7] = biological target: collagen receptor on human platelets (human); remark: listed apart in the source

## collagen-induced platelet aggregation inhibitor isolated from saliva of Triatoma pallidipennis
[1]
  IC50 of inhibition of collagen-induced platelet aggregation (highly purified protein): 50 nM
  IC50 of inhibition of collagen-induced platelet aggregation (partially purified "Superose"-pool): 2.5 µg per ml
[2]
  IC50 of adhesion-inhibition of metastatic tumor cells to collagen (highly purified protein): 100 nM
[3]
  released ATP, % of total ATP content, of collagen-treated platelets (30 µl = 10 µg protein of "Superose"-pool; 49% without inhibitor) (% of total ATP content): 2
[4]
  maximal aggregation of filtrated platelets induced with thrombin (0.06 U/ml), with 200 µl "Superose"-pool (control 75%) (% maximal aggregation): 75
[5]
  adherent platelets per mm^2 on collagen type I (50 µl of "Superose"-pool at 0.5 mg protein/ml; 13500 without inhibitor) (adherent platelets per mm^2): 6500
[6]
  cell attachment (cpm) of 51Cr-labelled MTLn3 cells to collagen type III (10 µl of "Superose"-pool; 2215 cpm without inhibitor): 1080 cpm
[7]
  inhibition of collagen-induced aggregation of human platelets (platelet-rich plasma, aggregometer; "Superose"-pool) (% inhibition of aggregation): 70
